# According to US20250327097A1, “ORGANISMS PRODUCING LESS CROTONIC ACID” (Global Bioenergies, priority 2021, published 2025):
# B1: I283T-P284D-N287P-S322T-H384A-N388M-C430N-L432F-L434W-S436N-A463G-Y469D (protein)
# chain: MFLKSLREQINLLKRQGDLRIINRPVDSYLEAAAIIRRSTETKAPVPLMTNIKGYPGCSIVGGLAALSSNPEYPLSRVAMSLGLSTTASAQSIVQYLIDGLKKTPYLPVEIDSNSAPCKQNILRGEDASLAHFPIPQVHQHDGNRYVNTWGVFIVESPDGQWCNWSIQRVQYLNDRQMIALVFPSQHISDIWEEWVKIGKPMPYALVQGCEPIVPYIAGLPLLERNVNEAEYIGALYGKGIEVVKCETHDLRVPASSEVVIEGYFAITREGVEGPFGEFAGYTDNEPSLQPILSITAISWQDDPIWPVVAEGKPVDEYHTCTGIGDAAAIQNVLLTANLPVSFVWVPLYSACHLMIVSINRHWRQTHPDLTSEQLTKKVGDVIAQTRMSIKLPKIVVLDDDVDPADTESLLWALATRIHPERKRYFYESNIFPWLNCYSEEERHNRKGKRVIIDALLPENHGGISSFDDAYPDDIKQRVLMHWETDFSHD
# B2: I283T-P284D-N287P-S322T-N388M-R422Q-C430N-L432F-L434W-S436N-A463G-Y469D (protein)
# chain: MFLKSLREQINLLKRQGDLRIINRPVDSYLEAAAIIRRSTETKAPVPLMTNIKGYPGCSIVGGLAALSSNPEYPLSRVAMSLGLSTTASAQSIVQYLIDGLKKTPYLPVEIDSNSAPCKQNILRGEDASLAHFPIPQVHQHDGNRYVNTWGVFIVESPDGQWCNWSIQRVQYLNDRQMIALVFPSQHISDIWEEWVKIGKPMPYALVQGCEPIVPYIAGLPLLERNVNEAEYIGALYGKGIEVVKCETHDLRVPASSEVVIEGYFAITREGVEGPFGEFAGYTDNEPSLQPILSITAISWQDDPIWPVVAEGKPVDEYHTCTGIGDAAAIQNVLLTANLPVSFVWVPLYSACHLMIVSINRHWRQTHPDLTSEQLTKKVGDVIHQTRMSIKLPKIVVLDDDVDPADTESLLWALATRIHPEQKRYFYESNIFPWLNCYSEEERHNRKGKRVIIDALLPENHGGISSFDDAYPDDIKQRVLMHWETDFSHD
# B3: I283T-P284D-N287P-S322T-N388M-R422V-C430N-L432F-L434W-S436N-A463G-Y469D (protein)
# chain: MFLKSLREQINLLKRQGDLRIINRPVDSYLEAAAIIRRSTETKAPVPLMTNIKGYPGCSIVGGLAALSSNPEYPLSRVAMSLGLSTTASAQSIVQYLIDGLKKTPYLPVEIDSNSAPCKQNILRGEDASLAHFPIPQVHQHDGNRYVNTWGVFIVESPDGQWCNWSIQRVQYLNDRQMIALVFPSQHISDIWEEWVKIGKPMPYALVQGCEPIVPYIAGLPLLERNVNEAEYIGALYGKGIEVVKCETHDLRVPASSEVVIEGYFAITREGVEGPFGEFAGYTDNEPSLQPILSITAISWQDDPIWPVVAEGKPVDEYHTCTGIGDAAAIQNVLLTANLPVSFVWVPLYSACHLMIVSINRHWRQTHPDLTSEQLTKKVGDVIHQTRMSIKLPKIVVLDDDVDPADTESLLWALATRIHPEVKRYFYESNIFPWLNCYSEEERHNRKGKRVIIDALLPENHGGISSFDDAYPDDIKQRVLMHWETDFSHD
# B4: I283T-P284D-N287P-S322T-N388M-R422F-C430N-L432F-L434W-S436N-A463G-Y469D (protein)
# chain: MFLKSLREQINLLKRQGDLRIINRPVDSYLEAAAIIRRSTETKAPVPLMTNIKGYPGCSIVGGLAALSSNPEYPLSRVAMSLGLSTTASAQSIVQYLIDGLKKTPYLPVEIDSNSAPCKQNILRGEDASLAHFPIPQVHQHDGNRYVNTWGVFIVESPDGQWCNWSIQRVQYLNDRQMIALVFPSQHISDIWEEWVKIGKPMPYALVQGCEPIVPYIAGLPLLERNVNEAEYIGALYGKGIEVVKCETHDLRVPASSEVVIEGYFAITREGVEGPFGEFAGYTDNEPSLQPILSITAISWQDDPIWPVVAEGKPVDEYHTCTGIGDAAAIQNVLLTANLPVSFVWVPLYSACHLMIVSINRHWRQTHPDLTSEQLTKKVGDVIHQTRMSIKLPKIVVLDDDVDPADTESLLWALATRIHPEFKRYFYESNIFPWLNCYSEEERHNRKGKRVIIDALLPENHGGISSFDDAYPDDIKQRVLMHWETDFSHD
# B5: I283T-P284D-N287P-S322T-N388M-E421V-C430N-L432F-L434W-S436N-A463G-Y469D (protein)
# chain: MFLKSLREQINLLKRQGDLRIINRPVDSYLEAAAIIRRSTETKAPVPLMTNIKGYPGCSIVGGLAALSSNPEYPLSRVAMSLGLSTTASAQSIVQYLIDGLKKTPYLPVEIDSNSAPCKQNILRGEDASLAHFPIPQVHQHDGNRYVNTWGVFIVESPDGQWCNWSIQRVQYLNDRQMIALVFPSQHISDIWEEWVKIGKPMPYALVQGCEPIVPYIAGLPLLERNVNEAEYIGALYGKGIEVVKCETHDLRVPASSEVVIEGYFAITREGVEGPFGEFAGYTDNEPSLQPILSITAISWQDDPIWPVVAEGKPVDEYHTCTGIGDAAAIQNVLLTANLPVSFVWVPLYSACHLMIVSINRHWRQTHPDLTSEQLTKKVGDVIHQTRMSIKLPKIVVLDDDVDPADTESLLWALATRIHPVRKRYFYESNIFPWLNCYSEEERHNRKGKRVIIDALLPENHGGISSFDDAYPDDIKQRVLMHWETDFSHD
# B6: I283T-P284D-N287P-S322T-N388M-C430N-L432F-L434W-S436N-H444R-A463G-Y469D (protein)
# chain: MFLKSLREQINLLKRQGDLRIINRPVDSYLEAAAIIRRSTETKAPVPLMTNIKGYPGCSIVGGLAALSSNPEYPLSRVAMSLGLSTTASAQSIVQYLIDGLKKTPYLPVEIDSNSAPCKQNILRGEDASLAHFPIPQVHQHDGNRYVNTWGVFIVESPDGQWCNWSIQRVQYLNDRQMIALVFPSQHISDIWEEWVKIGKPMPYALVQGCEPIVPYIAGLPLLERNVNEAEYIGALYGKGIEVVKCETHDLRVPASSEVVIEGYFAITREGVEGPFGEFAGYTDNEPSLQPILSITAISWQDDPIWPVVAEGKPVDEYHTCTGIGDAAAIQNVLLTANLPVSFVWVPLYSACHLMIVSINRHWRQTHPDLTSEQLTKKVGDVIHQTRMSIKLPKIVVLDDDVDPADTESLLWALATRIHPERKRYFYESNIFPWLNCYSEEERRNRKGKRVIIDALLPENHGGISSFDDAYPDDIKQRVLMHWETDFSHD
# B7: I283T-P284D-N287P-S322T-N388M-E421T-C430N-L432F-L434W-S436N-A463G-Y469D (protein)
# chain: MFLKSLREQINLLKRQGDLRIINRPVDSYLEAAAIIRRSTETKAPVPLMTNIKGYPGCSIVGGLAALSSNPEYPLSRVAMSLGLSTTASAQSIVQYLIDGLKKTPYLPVEIDSNSAPCKQNILRGEDASLAHFPIPQVHQHDGNRYVNTWGVFIVESPDGQWCNWSIQRVQYLNDRQMIALVFPSQHISDIWEEWVKIGKPMPYALVQGCEPIVPYIAGLPLLERNVNEAEYIGALYGKGIEVVKCETHDLRVPASSEVVIEGYFAITREGVEGPFGEFAGYTDNEPSLQPILSITAISWQDDPIWPVVAEGKPVDEYHTCTGIGDAAAIQNVLLTANLPVSFVWVPLYSACHLMIVSINRHWRQTHPDLTSEQLTKKVGDVIHQTRMSIKLPKIVVLDDDVDPADTESLLWALATRIHPTRKRYFYESNIFPWLNCYSEEERHNRKGKRVIIDALLPENHGGISSFDDAYPDDIKQRVLMHWETDFSHD
# B8: I283T-P284D-N287P-S322T-N388M-P393A-C430N-L432F-L434W-S436N-A463G-Y469D (protein)
# chain: MFLKSLREQINLLKRQGDLRIINRPVDSYLEAAAIIRRSTETKAPVPLMTNIKGYPGCSIVGGLAALSSNPEYPLSRVAMSLGLSTTASAQSIVQYLIDGLKKTPYLPVEIDSNSAPCKQNILRGEDASLAHFPIPQVHQHDGNRYVNTWGVFIVESPDGQWCNWSIQRVQYLNDRQMIALVFPSQHISDIWEEWVKIGKPMPYALVQGCEPIVPYIAGLPLLERNVNEAEYIGALYGKGIEVVKCETHDLRVPASSEVVIEGYFAITREGVEGPFGEFAGYTDNEPSLQPILSITAISWQDDPIWPVVAEGKPVDEYHTCTGIGDAAAIQNVLLTANLPVSFVWVPLYSACHLMIVSINRHWRQTHPDLTSEQLTKKVGDVIHQTRMSIKLAKIVVLDDDVDPADTESLLWALATRIHPERKRYFYESNIFPWLNCYSEEERHNRKGKRVIIDALLPENHGGISSFDDAYPDDIKQRVLMHWETDFSHD
# B9: I283T-P284D-N287P-S322T-H384T-N388M-C430N-L432F-L434W-S436N-A463G-Y469D (protein)
# chain: MFLKSLREQINLLKRQGDLRIINRPVDSYLEAAAIIRRSTETKAPVPLMTNIKGYPGCSIVGGLAALSSNPEYPLSRVAMSLGLSTTASAQSIVQYLIDGLKKTPYLPVEIDSNSAPCKQNILRGEDASLAHFPIPQVHQHDGNRYVNTWGVFIVESPDGQWCNWSIQRVQYLNDRQMIALVFPSQHISDIWEEWVKIGKPMPYALVQGCEPIVPYIAGLPLLERNVNEAEYIGALYGKGIEVVKCETHDLRVPASSEVVIEGYFAITREGVEGPFGEFAGYTDNEPSLQPILSITAISWQDDPIWPVVAEGKPVDEYHTCTGIGDAAAIQNVLLTANLPVSFVWVPLYSACHLMIVSINRHWRQTHPDLTSEQLTKKVGDVITQTRMSIKLPKIVVLDDDVDPADTESLLWALATRIHPERKRYFYESNIFPWLNCYSEEERHNRKGKRVIIDALLPENHGGISSFDDAYPDDIKQRVLMHWETDFSHD
# B10: N388Q-C430P-L432F-L434W-S436N (protein)
# chain: MFLKSLREQINLLKRQGDLRIINRPVDSYLEAAAIIRRSTETKAPVPLMTNIKGYPGCSIVGGLAALSSNPEYPLSRVAMSLGLSTTASAQSIVQYLIDGLKKTPYLPVEIDSNSAPCKQNILRGEDASLAHFPIPQVHQHDGNRYVNTWGVFIVESPDGQWCNWSIQRVQYLNDRQMIALVFPSQHISDIWEEWVKIGKPMPYALVQGCEPIVPYIAGLPLLERNVNEAEYIGALYGKGIEVVKCETHDLRVPASSEVVIEGYFAITREGVEGPFGEFAGYIPNENSLQPILSITAISWQDDPIWPVVAEGKPVDEYHTCSGIGDAAAIQNVLLTANLPVSFVWVPLYSACHLMIVSINRHWRQTHPDLTSEQLTKKVGDVIHQTRQSIKLPKIVVLDDDVDPADTESLLWALATRIHPERKRYFYESPIFPWLNCYSEEERHNRKGKRVIIDALLPENHGAISSFDYAYPDDIKQRVLMHWETDFSHD
# Tested on: 3-methylcrotonic acid
# Type: biochemical, Yersinia frederiksenii
# Set-up: key: “+” representing a low increase in activity; “++++” representing a high increase in activity
row,Molecule,Activity relative to WT
1,B1,++++
2,B2,++++
3,B3,++++
4,B4,++++
5,B5,++++
6,B6,++++
7,B7,++++
8,B8,++++
9,B9,++++
10,B10,+
